Source: the DeepSol protein solubility set

Assay: soluble on expression in E. coli; label from the status in PepcDB or PDB records

| Sequence | soluble on expression in E. coli |
| --- | --- |
| MSKSTAEIRQAFLDFFHSKGHQVVASSSLVPHNDPTLLFTNAGMNQFKDVFLGLDKRNYSRATTSQRCVRAGGKHNDLENVGYTARHHTFFEMLGNFSFGDYFKHDAIQFAWELLTSEKWFALPKERLWVTVYESDDEAYEIWEKEVGIPRERIIRIGDNKGAPYASDNFWQMGDTGPCGPCTEIFYDHGDHIWGGPPGSPEEDGDRYIEIWNIVFMQFNRQADGTMEPLPKPSVDTGMGLERIAAVLQHVNSNYDIDLFRTLIQAVAKVTGATDLSNKSLRVIADHIRSCAFLIADGVMPSNENRGYVLRRIIRRAVRHGNMLGAKETFFYKLVGPLIDVMGSAGEDLKRQQAQVEQVLKTEEEQFARTLERGLALLDEELAKLSGDTLDGETAFRLYDTYGFPVDLTADVCRERNIKVDEAGFEAAMEEQRRRAREASGFGADYNAMIRVDSASEFKGYDHLELNGKVTALFVDGKAVDAINAGQEAVVVLDQTPFYAESGGQVGDKGELKGANFSFAVEDTQKYGQAIGHIGKLAAGSLKVGDAVQADVDEARRARIRLNHSATHLMHAALRQVLGTHVSQKGSLVNDKVLRFDFSHNEAMKPEEIRAVEDLVNTQIRRNLPIETNIMDLEAAKAKGAMALFGEKYDERVRVLSMGDFSTELCGGTHASRTGDIGLFRIISESGTAAGVRRIEAVTGEGAIATVHADSDRLSEVAHLLKGDSNNLADKVRSVLERTRQLEKELQQLKEQAAAQESANLSSKAIDVNGVKLLVSELSGVEPKMLRTMVDDLKNQLGSTIIVLATVVEGKVSLIAGVSKDVTDRVKAGELIGMVAQQVGGKGGGRPDMAQAGGTDAAALPAALASVKGWVSAKLQ | soluble |
| MNRIKVAILFGGCSEEHDVSVKSAIEIAANINKEKYEPLYIGITKSGVWKMCEKPCAEWENENCYSAVLSPDKKMHGLLVKKNHEYEINHVDVAFSALHGKSGEDGSIQGLFELSGIPFVGCDIQSSAICMDKSLTYIVAKNAGIATPAFWVINKDDRPVAATFTYPVFVKPARSGSSFGVKKVNSADELDYAIESARQYDSKILIEQAVSGCEVGCAVLGNSAALVVGEVDQIRLQYGIFRIHQEVEPEKGSENAVITVPADLSAEERGRIQETVKKIYKTLGCRGLARVDMFLQDNGRIVLNEVNTLPGFTSYSRYPRMMAAAGISLPELIDRLIVLALKG | soluble |
| MTENERAHADHASASPQRTRRRRGKPRRRMDSGASTQGGGASKSAAPSSSTSGSRGERGSRGDDKDKQNKHTRRKRRPAHRSTQRGSHGGDSSNSGSGIKRRRHTGNKNRGNQSRRQNNRSSRITTRDETSAGGLVISGLAEAVDENNNVDLSRIYVALIGRL | not soluble |
| MSLDFAKQGPIVIGGVGGSGTRLIAEIVMDMGFYLGGMLNQSKDLLYFSLLFKRPTWFSKVVTSNEQEIFRGLKILENRLTTQKELTGKDIKFIEKAAQTYRNGDLLAQKIKKNMLFPDPINRQLYRGWGWKEPNAHLFLPYIHRYFPNGKYIHVIRNGLNMAFSKNQQQLFNWGPLFGVTIPNNPMKIPNASLTYWIKANERAVMYGTEQMKGRFLLIQFDQLCVNPTPQLQKLAEFLAVDDLAIDEWSEKIDPAAAASKYKEGHHHHHH | soluble |
| MLFRVRSETDSQPPFACLNDIKLFDTDNIGRGINAAILNGTTGDIIEKATFDVTASDEKLMTWLLKVPHASLLVAASFGDVAEHVSRQSRQLFAAFGAQKIDNWRVGNAYAIIGQRGIRRGEAHETVAKFLEENTQQKLFEGCFDLPIAEIGGEVELKIDGPPVHRADESKLAELGAFEADLLQQNKDVEYGGKWKNCGMDRPCNEADTIPVHFFSGEHKDDHPKMCIGGRMLFDKDLNSAGRGLNLAMLEPKTGKVTAVAHFDTYEDESHGLEEWLDAVPTGYIVAVVSFDEASNQLSDMARRIFYEMGSSMIDRLKFRASWYFVGQKGIGAYTPFEDLNIPQGNNWANPIHTSFCLPKSLHKWAGRRDTSSSMTSSASNDVRNLPKRHFCAKYDRHEEFCGAANLDSPIMPRHLSDEQRSSDAIFNVPILVASGLAPDSLRITLESLLNQEGLNTQMVLVTYDKEYSENADLVSLFHVKSVAIQSNGSYNGRKTSWKSEEIAENPMKIDRKPPGGLGNQKFVFLGHQFF | not soluble |
| MVKGDITTAFIAEEYPDGFQGAVLDEPTLRRVAAAAAAMNRVAEIRRTRISGTMNNHERHVGVDWVVALQGESYHVSIAADREGSTVSFSDGSSLRVTSDWTPGQPLEHHHHHH | not soluble |
| MAHHHHHHMSRVSVLAGQKPKPKESFKFLRRDEGRLSYSAATAESPSKNAANGADGANINRERRDSKALREAIAYDMRNAKSHDPLGEVVVAVPRKAPPPTRAVSAPPPNTNASSGTEKPAAGAPPQRRQPARAANPKKPEWVDPEIPPSPLLQAPTHTVVERPADNYFETSYSDSHSGGAAALSSGIGRSVSRGSDTNGADLGRYGGLTPRSAAMGAPRYASLKYEESSAAPLSGQDRNYFRRPLYTRDPALGSDAHSPAGSRVREEDELIASLEQEIKAAQKERNHYADARQQLDREKQRFESYRYGARQQMEDERADAGDRRSREQRDAQKDLRATEERFKNVSALLVAERETNRRLSQENDSLRTQLEDLTSTMREAHRIHKAEVARMRRDIDSLTRRNAELLAMAKEQQLQCLEGASASPSTRQSSSSPFSVSLDPSAQRASSASCEGGYDEDNDAAAVGERRASRAAPLAVMDFTPRASSREAAAREKRNRQMQNRMQAEEQAMEERKRHREQYIAGRKREEQEEKTRHRVAVDAAAAATACRRSEEDDLRKAATAAEKVVEERKMSGHPARTPRMQSGALSVKRRPSVSAVHAPVAPKRHHVPTREDLIGDMEEFPTEKFCDDDVVSQTALGDNSNKKEVLYRSGKREIHYANGTVKVVLPSGHTTLRFTNGDVKCTFPSGKSTYWYDAAQTMHTQMPDGVQAFEFRSTGQTEKHLPDGSKEILYPDGIYKMVRPDGSDETFYPDGEPMEE | soluble |
| MSLDHRLLSINTATVRRQGDLATIIEACARAQIRAISPWRDQVAHIGLPRAVEAVKATGLALSGYCRGGMFPADPARLPEVRDDNRRAVDEAEALGASCLVLVVGGLPQYARPGSAPSKDIGAARAMVEDGIGTLLEYARSAHMPLAIEPLHPMYAADRACVNTMGQALDICDRLDPERSGMLGVALDVFHVWWDPDLSAQIVRAGRDRLLAYHVCDWLVPMADMLNDRGMMGDGVIDLKAIRAQVEAQGYQGFAEVEIFSEHWWAKPMEEVLGTCISRHRSVVEGHHHHHH | not soluble |
| MELRVGNRYRLGRKIGSGSFGDIYLGTDIAAGEEVAIKLECVKTKHPQLHIESKIYKMMQGGVGIPTIRWCGAEGDYNVMVMELLGPSLEDLFNFCSRKFSLKTVLLLADQMISRIEYIHSKNFIHRDVKPDNFLMGLGKKGNLVYIIDFGLAKKYRDARTHQHIPYRENKNLTGTARYASINTHLGIEQSRRDDLESLGYVLMYFNLGSLPWQGLKAATKRQKYERISEKKMSTPIEVLCKGYPSEFATYLNFCRSLRFDDKPDYSYLRQLFRNLFHRQGFSYDYVFDWNMLKFGASRAADDAERERRDREERLRHSRNPATRGLPSTASGRLRGTQEVAPPTPLTPTSHTANTSPRPVSGMERERKVSMRLHRGAPVNISSSDLTGRQDTSRMSTSQIPGRVASSGLQSVVHR | not soluble |
| MHKAGLLGLCARAWNSVRMASSGMTRRDPLANKVALVTASTDGIGFAIARRLAQDGAHVVVSSRKQQNVDQAVATLQGEGLSVTGTVCHVGKAEDRERLVATAVKLHGGIDILVSNAAVNPFFGSIMDVTEEVWDKTLDINVKAPALMTKAVVPEMEKRGGGSVVIVSSIAAFSPSPGFSPYNVSKTALLGLTKTLAIELAPRNIRVNCLAPGLIKTSFSRMLWMDKEKEESMKETLRIRRLGEPEDCAGIVSFLCSEDASYITGETVVVGGGTPSRL | not soluble |
| SDLGAITKYSALHAKPNGLILQYGTAGFRTKAEHLDHVMFRMGLLAVLRSKQTKSTIGVMVTASHNPEEDNGVKLVDPLGEMLAPSWEEHATCLANAEEQDMQRVLIDISEKEAVNLQQDAFVVIGRDTRPSSEKLSQSVIDGVTVLGGQFHDYGLLTTPQLHYMVYCRNTGGRYGKATIEGYYQKLSKAFVELTKQASCSGDEYRSLKVDCANGIGALKLREMEHYFSQGLSVQLFNDGSKGKLNHLCGADFVKSHQKPPQGMEIKSNERCCSFDGDADRIVYYYHDADGHFHLIDGDKIATLISSFLKELLVEIGESLNIGVVQTAYANGSSTRYLEEVMKVPVYCTKTGVKHLHHKAQEFDIGVYFEANGHGTALFSTAVEMKIKQSAEQLEDKKRKAAKMLENIIDLFNQAAGDAISDMLVIEAILALKGLTVQQWDALYTDLPNRQLKVQVADRRVISTTNAERQAVTPPGLQEAINDLVKKYKLSRAFVRPSGTEDVVRVYAEADSQESADHLAHEVSLAVFQLAGGIGERPQPGF | not soluble |
| MGSDKIHHHHHHMMGEFEAIRPYSDAEVPAVLQRLLSDDAFLGALVRYRFPRLAGPLGWLLKPLIAHRLAREVTGIRSVATLQDKFEPYVDHTIEKATDGVTYSGVNRLKPGCAYLFIANHRDIVMDPAFVNYAVYHAGLPTPRIAIGDNLLQKSFVSDLMRLNKSFIVHRSLSGRREKLAAYQTLSAYINHSIREDRQSVWIAQAEGRAKDGDDRTDSAILKMFHMSRKDEPFAEMVRALHFIPVSISYEYDPCDLAKARELHTRASTGEYRKAPGEDDASIALGITGYKGRVHINFGAELEGEFSDAKQLAAELDRQILGNYRLFPVHYLAYEMSENRDPGLAVPTAESLFGSEELEKARKEWNRRLEQCPAEQRSWLVLQYANPVLNQYRIKQQS | not soluble |
| MASKLRRYIMNTTSLSLTPLLRHSVGFERFNDLFESMRNADDSTYAYPAYDIEKHGEDSYTITMAVPGFQESDLNIMVQNDQLTVSGRIQEKETKESEYLHRSIVTRAFEQTFRLADHMQVTGAEIKNGLLSIGLIREIPEEAKPRIIPIKSISDQESNKKGKTLEPESKKKISN | not soluble |
| MAERKYFGTDGVRGKVGQFPITPDFALKLGWAAGKILATQGTKQVLIGKDTRISGYMLESALEAGLAAAGLSAAFVGPMPTPAVAYLTRTFRAEAGIVISASHNPYYDNGIKFFSANGEKLPDEVEEAIEALLDQPMDYVESDQLGKAIRINDAAGRYIEFCKGTFPADASLKGYKIVVDCAHGATYHIAPNVMRELGAEVIEIGTHPNGLNINDKCGATDISALQQAVLTSKADLGVAYDGDGDRIIMVDHLGNKVDGDQILFIIAREALRSGKLKGGVVGTLMSNMGLEIALKHLAIPFTRANVGDRYVLEQLKEKNWKLGGENSGHIIVLDKNTTGDGIIASLEVLAAMEAHKMSLNDLTHAVPLFPQVLLNVRFDGGNNPLENAAVKALAKDIETRLVGKGRILLRKSGTEPLIRVMVECEDAVLAQQYAEEIVSAIQNH | not soluble |
| MGSDKIHHHHHHMILNSRTIDDAKFFDKPILLFFTDENCKDCDTIYSKLQDSTIFSKYIGKKVNALEYIHYTIRLTRGMIPTITILSPTLDLLAVIESKDLKFIENKLRELLDEYKRRIVKGIKLEGYTPDPIEPTPSIIYETINKVIGGYEADTRMIEVYLTYTNVYKEYLKAKDKIKCSDDVARYLLEGKGEIKIDEKSSANVSMLVNYGVTSVQKLLDFIDINSGEVYRSKKKETKGILLDEALAGNALVSEYERTINEEYLSLAIKVADYIKNNLQHERGFRDIKEIDNITKVPYLEPISNSEASIFFSRLWNITGDETYKNLALKGLGSALGGALNNPKVIARAAIAYLKLFDSIKANRYLNIIDARITVVKNNGCNDSMLYYSGQCYSKIDEIQPTAF | not soluble |
| MKEVIFTENAPKPIGPYSQAIKAGNFLFIAGQIPIDPKTGEIVKGDIKDQTRQVLENIKAILEAAGYSLNDVIKVTVYLKDMNDFAKMNEVYAEYFGESKPARVAVEVSRLPKDVLIEIEAIAYKE | soluble |
| MSLKMFEVPVSSVSISINSALLKGCRKFMVLGYGEIGKLAIKHLLSHKVECIYLIVRDKSKASDLEGEIVEVLDFNEKNQVINEIDCIVSCTAAPHTVVRNEDIKTEGETIHIYDLAVPRDVDKELSEKERVILKDIDEISKIDDKNKKIRKERMEEYKHIVEESIDEFLNWLKIREVSSKIRNIKIREGHHHHHH | not soluble |
